To fix the notation:
B1: VH3+VL4 (antibody, human IgG4 S228P, kappa, V domains shown)
VH: QVQLVQSGAEVKKPGASVKVSCKASGYTFTSSVIHWVKQAPGQGLEWLGYINPYSDGTKFNEKCKIRVTLTSDTSISTAYMELSRLRSDDTAVYYCARGLIGTRYDSWFAYWGQGTLVTVSS
VL: DIQMTQSPSSLSASVGDRVTISCRTSQDINNYLNWYQQKPGKTVKLLIYYTSRLHSGVPSRFSGSGSGTDYTFTISSLQPEDIATYFCQQGNTLPYTFGGGTKVEIKR
notes: Humanized IgG, hIgG4 CH (S228P) and human kappa CL; leader residues 1-19 of each entry left out; Tested from supernatant; also called U0959FD090-VH3 + U0959FD090-VL4
B2: VH2+VL1 (antibody, human IgG4 S228P, kappa, V domains shown)
VH: QVQLVQSGAEVKKPGASVKVSCKASGYTFTSSVIHWVRQAPGQGLEWLGYINPYSDGTKFNEKCKIRATMTSDTSISTAYMELSRLRSDDTAVYYCARGLIGTRYDSWFAYWGQGTLVTVSS
VL: DIQMTQSPSSLSASVGDRVTITCRTSQDINNYLNWYQQKPGKAPKLLIYYTSRLHSGVPSRFSGSGSGTDFTFTISSLQPEDIATYYCQQGNTLPYTFGGGTKVEIKR
notes: Humanized IgG, hIgG4 CH (S228P) and human kappa CL; leader residues 1-19 of each entry left out; Tested from supernatant; also called U0959FD090-VH2 + U0959FD090-VL1
B3: VH2+VL3 (antibody, human IgG4 S228P, kappa, V domains shown)
VH: QVQLVQSGAEVKKPGASVKVSCKASGYTFTSSVIHWVRQAPGQGLEWLGYINPYSDGTKFNEKCKIRATMTSDTSISTAYMELSRLRSDDTAVYYCARGLIGTRYDSWFAYWGQGTLVTVSS
VL: DIQMTQSPSSLSASVGDRVTITCRTSQDINNYLNWYQQKPGKAVKLLIYYTSRLHSGVPSRFSGSGSGTDYTFTISSLQPEDIATYFCQQGNTLPYTFGGGTKVEIKR
notes: Humanized IgG, hIgG4 CH (S228P) and human kappa CL; leader residues 1-19 of each entry left out; Tested from supernatant; also called U0959FD090-VH2 + U0959FD090-VL3
B4: VH4+VL3 (antibody, human IgG4 S228P, kappa, V domains shown)
VH: QVQLVQSGAEVKKPGASVKVSCKASGYTFTSSVIHWVKQAPGQGLEWLGYINPYSDGTKFNEKCKIRATMTSDKSISTAYMELSRLRSDDTAVYYCARGLIGTRYDSWFAYWGQGTLVTVSS
VL: DIQMTQSPSSLSASVGDRVTITCRTSQDINNYLNWYQQKPGKAVKLLIYYTSRLHSGVPSRFSGSGSGTDYTFTISSLQPEDIATYFCQQGNTLPYTFGGGTKVEIKR
notes: Humanized IgG, hIgG4 CH (S228P) and human kappa CL; leader residues 1-19 of each entry left out; Tested from supernatant; also called U0959FD090-VH4 + U0959FD090-VL3
B5: VH1+VL4 (antibody, human IgG4 S228P, kappa, V domains shown)
VH: QVQLVQSGAEVKKPGASVKVSCKASGYTFTSSVIHWVRQAPGQGLEWMGYINPYSDGTKFNEKCKIRVTMTRDTSISTAYMELSRLRSDDTAVYYCARGLIGTRYDSWFAYWGQGTLVTVSS
VL: DIQMTQSPSSLSASVGDRVTISCRTSQDINNYLNWYQQKPGKTVKLLIYYTSRLHSGVPSRFSGSGSGTDYTFTISSLQPEDIATYFCQQGNTLPYTFGGGTKVEIKR
notes: Humanized IgG, hIgG4 CH (S228P) and human kappa CL; leader residues 1-19 of each entry left out; Tested from supernatant; also called U0959FD090-VH1 + U0959FD090-VL4
B6: VH3+VL3 (antibody, human IgG4 S228P, kappa, V domains shown)
VH: QVQLVQSGAEVKKPGASVKVSCKASGYTFTSSVIHWVKQAPGQGLEWLGYINPYSDGTKFNEKCKIRVTLTSDTSISTAYMELSRLRSDDTAVYYCARGLIGTRYDSWFAYWGQGTLVTVSS
VL: DIQMTQSPSSLSASVGDRVTITCRTSQDINNYLNWYQQKPGKAVKLLIYYTSRLHSGVPSRFSGSGSGTDYTFTISSLQPEDIATYFCQQGNTLPYTFGGGTKVEIKR
notes: Humanized IgG, hIgG4 CH (S228P) and human kappa CL; leader residues 1-19 of each entry left out; Tested from supernatant; also called U0959FD090-VH3 + U0959FD090-VL3
B7: VH4+VL1 (antibody, human IgG4 S228P, kappa, V domains shown)
VH: QVQLVQSGAEVKKPGASVKVSCKASGYTFTSSVIHWVKQAPGQGLEWLGYINPYSDGTKFNEKCKIRATMTSDKSISTAYMELSRLRSDDTAVYYCARGLIGTRYDSWFAYWGQGTLVTVSS
VL: DIQMTQSPSSLSASVGDRVTITCRTSQDINNYLNWYQQKPGKAPKLLIYYTSRLHSGVPSRFSGSGSGTDFTFTISSLQPEDIATYYCQQGNTLPYTFGGGTKVEIKR
notes: Humanized IgG, hIgG4 CH (S228P) and human kappa CL; leader residues 1-19 of each entry left out; Tested from supernatant; also called U0959FD090-VH4 + U0959FD090-VL1
B8: chimeric-VH-PTM1+VL-1 (antibody, human IgG4 S228P, V domains shown)
VH: EVQLQQSGPELVKPGASVKLSCKASGYTFTSSVIHWVKQKPGQGLEWLGYINPYSEGTKFNEKSKIKATLTSDKSSSTAYMELSSLTSEDSAVYYCARGLIGTRYDSWFAYWGQGTLVTVSA
VL: DIQMTQNGSSLSASLGDRVTISCRTSQDINNYLNWYQQKQDGTVKLLIYYTSRLHSGVPSRFSGSGSGTDYSLTIRNLEQEDIATYFCQQGNTLPYTFGGGTKLEIK
notes: Heavy chain with hIgG4 CH (S228P); Light chain: mouse VL-1 with a human constant region; Tested from supernatant; also called U0959FD090-chimeric-VH-PTM1 with 32G8H6 VL-1
B9: chimeric-VH-PTM2+VL-1 (antibody, human IgG4 S228P, V domains shown)
VH: EVQLQQSGPELVKPGASVKLSCKASGYTFTSSVIHWVKQKPGQGLEWLGYINPYSDATKFNEKSKIKATLTSDKSSSTAYMELSSLTSEDSAVYYCARGLIGTRYDSWFAYWGQGTLVTVSA
VL: DIQMTQNGSSLSASLGDRVTISCRTSQDINNYLNWYQQKQDGTVKLLIYYTSRLHSGVPSRFSGSGSGTDYSLTIRNLEQEDIATYFCQQGNTLPYTFGGGTKLEIK
notes: Heavy chain with hIgG4 CH (S228P); Light chain: mouse VL-1 with a human constant region; Tested from supernatant; also called U0959FD090-chimeric-VH-PTM2 with 32G8H6 VL-1

For orientation: Kd means the constant that tells how readily two partners part at equilibrium. A high value points to a looser complex. One may read the koff as the first-order rate constant of dissociation. Low readings indicate a long-lived complex, high ones a short-lived complex. For orientation: kon means the second-order rate constant of association. Low readings indicate slower complex formation, high ones faster complex formation.

For this assay, the target named is T1, human CD47 protein (human, UniProt Q08722 19-139, limits assumed).
T1 construct: also called human CD47 antigen
T1 sequence (Q08722 19-139 limits assumed): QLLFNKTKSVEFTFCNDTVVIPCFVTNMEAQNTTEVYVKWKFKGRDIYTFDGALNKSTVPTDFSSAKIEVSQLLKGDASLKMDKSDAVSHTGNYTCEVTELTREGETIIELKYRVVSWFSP
The experiment in a line: SPR Biacore, supernatant antibody Fc-captured, human CD47 analyte 5 nM. The protocol: Production and affinity ranking of humanized antibodies. The designed plasmids of heavy chain and light chain were sent for 3 mL transfection following GenScript's SOP. For affinity ranking, Antibodies were captured on the sensor chip through Fc capture method. Human CD47 protein was used as the analyte. The surface was regenerated before the injection of another antibody. The process was repeated until all antibodies were analyzed. The off-rates of antibodies were obtained from fitting the experimental data locally to 1:1 interaction model using the Biacore® T200/8K evaluation software. The antibodies were ranked by their dissociation rate constants (off-rates, kd).
B1 displayed a Kd of 0.555 nM, a koff of 0.00305 s⁻¹ and a kon of 5.49e+06 M⁻¹ s⁻¹.

B2 showed a Kd of 1 nM, a koff of 0.00648 s⁻¹ and a kon of 6.47e+06 M⁻¹ s⁻¹.

B3: binding was put at a Kd of 0.597 nM, the koff is 0.00348 s⁻¹ and the kon amounted to 5.83e+06 M⁻¹ s⁻¹.

Consider B4, for which the Kd turned out to be 0.591 nM, the koff was determined as 0.00287 s⁻¹ and the kon turned out to be 4.85e+06 M⁻¹ s⁻¹.

The molecule B5 had a Kd of 0.266 nM, a koff of 0.00128 s⁻¹ and a kon of 4.8e+06 M⁻¹ s⁻¹.

The molecule B6 displayed a Kd of 0.602 nM, a koff of 0.00312 s⁻¹ and a kon of 5.18e+06 M⁻¹ s⁻¹.

B7: binding was characterised by a dissociation constant (Kd) of 0.839 nM, the koff came out at 0.005 s⁻¹ and the kon turned out to be 5.96e+06 M⁻¹ s⁻¹.

The molecule B8 yielded a Kd of 0.292 nM, a koff of 0.00215 s⁻¹ and a kon of 7.36e+06 M⁻¹ s⁻¹.

The molecule B9 returned a Kd of 0.488 nM, a koff of 0.00442 s⁻¹ and a kon of 9.06e+06 M⁻¹ s⁻¹.

Source of the values: patent US20220204613A1 (D 10 THERAPEUTICS, published 2022).
